This note sets out measurements from PMC4570534.

What is called stoichiometry N is a count of units in the complex or per binding partner.

In the assay the target is WT‐EsxB (Bacillus anthracis). The assay is described as follows: SEC. A general note: SEC sorts molecules by how far they enter the pores of the column.

WT‐EsxB (natural protein) showed a stoichiometry N of 4.
